Reference: patent publication US20250171543A1 (TAIZHOU ENZE MEDICAL CENTER GROUP, published 2025)

Columns and labels:
[1] = biological target: T1, immunogen peptide QTDRMNLQTLRGYYNQSEAS (positions 72-91 in the heavy chain α1 domain of the HLA-G molecule) (human); test: ELISA on coated peptide, 2-fold dilution series
T1 construct: Synthetic peptide, coated on the ELISA plate at 2 µg/ml; also called antigen
T1 peptide: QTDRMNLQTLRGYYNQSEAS
Protocol: (§1) The antigen (SEQ No.19 [sequence]) was diluted with coating solution to a final concentration of 2 μg/ml, 10 μL/well, overnight at 4° C.; then washed twice with the washing solution; blocked with the blocking solution at 200 μL/well, incubated at 37° C. for 2 hours; then washed once with the washing solution. The purified antibody was diluted gradiently with PBS by 2-fold starting from 200-fold, using PBS as the blank control, both 100 μL/well, incubated at 37° C. for 1 hour; and then washed 3 times with the washing solution. The secondary antibody diluted by 20,000-fold with PBS was added at 100 L/well, and incubated in a 37° C. incubator for 1 hour; taken out and washed 3 times with the washing solution. Then color development was performed with the developing solution at 100 μL/well for 5-15 minutes. Then 50 μL of stop solution was added, and the absorbance was measured at dual wavelengths (450, 630), and a plot was drawn for analysis.

HLA-G7 = biological target: T2, HLA-G7 (human, UniProt P17693-7 25-116); test: immunoblot of standard proteins, antibody 1.0 µg/ml
T2 construct: also called HLA-G isoform standard protein HLA-G7; K562-HLA-G7
Protocol: After SDS-PAGE electrophoresis and transferred to PVDF membrane, the HLA-G isoform standard proteins HLA-G1, HLA-G2, HLA-G3, HLA-G4, HLA-G5, HLA-G6, HLA-G7 and HLA-G molecular standard proteins lacking al domain were blocked with 5% skimmed milk powder at room temperature for 4 hours, and washed with 0.2% TBS (Tween-20 PBS).

HLA-G2 = biological target: T3, HLA-G2 (human, UniProt P17693-2 25-246); test: intracellular flow cytometry, FITC-labeled antibody on permeabilised K562-HLA-G2 cells
T3 construct: also called HLA-G isoform standard protein HLA-G2; K562-HLA-G2
Protocol: (§2) The cell cultures expressing the K562 (blank control), K562-HLA-G1, K562-HLA-G2, K562-HLA-G3, K562-HLA-G4, K562-HLA-G5, K562-HLA-G6 and K562-HLA-G7 in the logarithmic growth phase were used. The detection was conducted by intracellular flow cytometry.
(§3) Detection of intracellular molecule expression by flow cytometry: The cell cultures of K562, K562-HLA-G1, K562-HLA-G2, K562-HLA-G3, K562-HLA-G4, K562-HLA-G5, K562-HLA-G6, K562-HLA-G7 were collected in test tubes, centrifuged and washed twice with 2% BSA/PBS (250 g), then 250 μL of cell membrane-breaking agent (BD Cytofix/Cytoperm™) was added, fully mixed, and placed in the refrigerator at 4° C. for 20 minutes. Then 1 ml of BD Perm/Wash™ was added to centrifuge and wash twice (250 g).

HLA-G3 = biological target: T4, HLA-G3 (human, UniProt P17693-3 25-154); test: intracellular flow cytometry, FITC-labeled antibody on permeabilised K562-HLA-G3 cells
T4 construct: also called HLA-G isoform standard protein HLA-G3; K562-HLA-G3
Protocol: as §2, §3

HLA-G4 = biological target: T5, HLA-G4 (human, UniProt P17693-4 25-246); test: intracellular flow cytometry, FITC-labeled antibody on permeabilised K562-HLA-G4 cells
T5 construct: also called HLA-G isoform standard protein HLA-G4; K562-HLA-G4
Protocol: as §2, §3

HLA-G5 = biological target: T6, HLA-G5 (human, UniProt P17693-5 25-319); test: intracellular flow cytometry, FITC-labeled antibody on permeabilised K562-HLA-G5 cells
T6 construct: also called HLA-G isoform standard protein HLA-G5; K562-HLA-G5
Protocol: as §2, §3

HLA-G6 = biological target: T7, HLA-G6 (human, UniProt P17693-6 25-227); test: intracellular flow cytometry, FITC-labeled antibody on permeabilised K562-HLA-G6 cells
T7 construct: also called HLA-G isoform standard protein HLA-G6; K562-HLA-G6
Protocol: as §2, §3

[2] = biological target: T1, immunogen peptide QTDRMNLQTLRGYYNQSEAS …; test: ELISA on coated peptide, logistic fit, affinity constant = 150000 x dilution factor / antibody concentration
Protocol: as §1

B1: monoclonal antibody YWHG-1 against HLA-G molecule (antibody, V domains shown)
VH: QLQESGTVLVRPGASVKLSCKASGYIFTSYWINWVKQRPGQGLEWIGNIYPSDSYTNFNQKFEDKATLTVDTSSSTAYMQFSSPTSEDSAVYYCTRFGYPFDYWGQGTTLTVSS
VL: DIVITQDELSLTVSLGDQASISCRTSQSFVHSNGNIYLEWFLQKPGQSPKLLIYKVSSRFSGVPDRFSGSGSGTDFTLKISRVEAEDLGIYYCFQGSHVPPTFGGGTKLEIK
notes: FITC-labeled in the flow cytometry assay; also called hybridoma CCTCC NO: 202120
antibody dilution factor corresponding to 1/2 OD value [1]: 25600 fold dilution (of 1.9 mg/mL antibody)
binding result (HLA-G7): binds
binding result (HLA-G2): binds
binding result (HLA-G3): binds
binding result (HLA-G4): binds
binding result (HLA-G5): binds
binding result (HLA-G6): binds
Ka [2]: 2.02e+09 M⁻¹
